Data taken from paper doi:10.1101/2025.07.16.665076, “GPLD1 is as a scavenger carrier mediating lysosomal degradation of extracellular aberrant proteins” (bioRxiv, 2025).

Biological target: T1, GPLD1-mCherry-sfGFP-His (GPLD1-RG) (human, UniProt P80108 24-840)
T1 construct: signal peptide in the construct; glycosylphosphatidylinositol-specific phospholipase D1 (GPLD1), human, full length, amplified from HepG2 cDNA; The fusion is said to be 160 kDa; also called GPLD1-RFP-GFP; GPLD1-RG-His; not shown: mCherry, C-terminal, kept; sfGFP, C-terminal, kept; His, C-terminal, kept
T1 sequence (looked up): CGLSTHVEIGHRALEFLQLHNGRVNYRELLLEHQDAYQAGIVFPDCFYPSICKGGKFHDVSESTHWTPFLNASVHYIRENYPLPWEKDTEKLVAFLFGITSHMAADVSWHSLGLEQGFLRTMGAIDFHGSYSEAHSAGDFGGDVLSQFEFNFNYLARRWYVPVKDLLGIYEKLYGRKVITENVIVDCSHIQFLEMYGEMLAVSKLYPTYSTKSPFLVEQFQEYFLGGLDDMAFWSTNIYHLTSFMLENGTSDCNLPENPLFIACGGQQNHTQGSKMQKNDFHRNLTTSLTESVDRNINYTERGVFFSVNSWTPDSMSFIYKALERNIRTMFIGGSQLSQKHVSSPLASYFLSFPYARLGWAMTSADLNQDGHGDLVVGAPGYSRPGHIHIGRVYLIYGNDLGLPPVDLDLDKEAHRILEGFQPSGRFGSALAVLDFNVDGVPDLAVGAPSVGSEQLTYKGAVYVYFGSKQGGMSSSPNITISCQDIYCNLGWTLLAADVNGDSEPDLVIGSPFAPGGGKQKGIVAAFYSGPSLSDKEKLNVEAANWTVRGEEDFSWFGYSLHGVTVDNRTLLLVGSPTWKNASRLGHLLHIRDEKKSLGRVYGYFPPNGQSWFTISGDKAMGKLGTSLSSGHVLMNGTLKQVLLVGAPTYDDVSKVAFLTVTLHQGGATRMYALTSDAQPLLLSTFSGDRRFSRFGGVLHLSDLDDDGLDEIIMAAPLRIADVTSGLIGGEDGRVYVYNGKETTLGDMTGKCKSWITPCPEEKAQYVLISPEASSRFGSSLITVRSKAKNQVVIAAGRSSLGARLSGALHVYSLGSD
Experiment: co-IP; purified RG-tagged protein (GPLD1-RG 40 nM) and ALFA-tagged substrate (His-ALFA-SAA1 500 nM) in PBS, 37°C with shaking for 2 h, aggregates spun out; ALFA nanobody beads at 4°C for 2 h, four washes with PBS; immunoblot
Conditions: both partners purified

B1: His-ALFA-SAA1-Full length (SAA1-F) (natural protein, human, UniProt P0DJI8 19-122, looked up)
chain: RSFFSFLGEAFDGARDMWRAYSDMREANYIGSDKYFHARGNYDAAKRGPGGAWAAEVITDARENIQRFFGHGAEDSLADQAANEWGRSGKDPNHFRPAGLPEKY
notes: serum amyloid A1 (SAA1), human, amino acids 19-122; Used in native form in the immunoprecipitation; the purification of the native form is not described; also called native ALFA-SAA1-F (full-length); source: E. coli BL21(DE3) pLysS, recombinant; not shown: His, N-terminal, kept; ALFA, N-terminal, kept
B1: binds.

B2: His-ALFA-SAA1-N terminus (SAA1-N) (domain or fragment, human, UniProt P0DJI8 19-94, looked up)
chain: RSFFSFLGEAFDGARDMWRAYSDMREANYIGSDKYFHARGNYDAAKRGPGGAWAAEVITDARENIQRFFGHGAEDS
notes: serum amyloid A1 (SAA1), human, amino acids 19-94: the N-terminal 76 residues, core amyloidogenic fragment; Prepared in 8 M urea-denatured form for all experiments; it aggregates on incubation in PBS; also called His-ALFA-tagged SAA1-N; source: E. coli BL21(DE3) pLysS, purified from inclusion bodies (Co-NTA, 8 M urea), stored in urea; not shown: His, N-terminal, kept; ALFA, N-terminal, kept
B2: binds.
